Data from patent publication US20260035484A1 (LONGBIO PHARMA SUZHOU, published 2026).

Key:
[1] = molecular target: T1, biotin-labelled human IgE-Fc (human, UniProt P01854 104-427, biotin-labelled); assay: blocking ELISA, inhibition ratio: FcεRIα-Fc coated, biotin-labelled human IgE-Fc (100 ng/mL) premixed with the antibody, streptavidin-HRP; blocked ligand FcεRIα-Fc
T1 construct: also called recombinant human IgE-Fc protein; Fc region (CH2-4) protein of human IgE
Description: The method specifically included diluting the recombinantly expressed human FcεRIα-Fc protein (with its amino acid sequence as set forth in SEQ ID NO: 51) with PBS to a final concentration of […], coating the ELISA plates (purchased from Corning, Product code: 42592) at 100 μL per well, and keeping at 4° C. overnight. The next day, the coating solution was discarded. The wells were blocked with 2.5% skimmed milk dissolved in PBS for 1 hour and washed with PBS containing 0.05% Tween-20. […] After discarding the supernatant, the wells were washed with PBS containing 0.05% Tween-20 and diluted with HRP-labelled streptavidin (purchased from Sangon Biotech, Product code: D111054-0001) at 1:1000 for detection. The inhibition ratio of different antibodies at different concentrations was calculated following the formula below: Inhibition ratio at antibody concentration of X (%)=(OD₄₅₀ readout at antibody concentration of 0-OD₄₅₀ readout at antibody concentration of X)/OD₄₅₀ readout at antibody concentration of 0×100.

[2] = molecular target: T1, biotin-labelled human IgE-Fc; assay: blocking ELISA: FcεRIα-Fc coated, biotin-labelled human IgE-Fc (1 µg/mL) premixed with the antibody, streptavidin-HRP; blocked ligand FcεRIα-Fc
Description: The next day, the coating solution was discarded. The wells were blocked with 2.5% skimmed milk dissolved in PBS for 1 hour and washed with PBS containing 0.05% Tween-20. […] After discarding the supernatant, the wells were washed with PBS containing 0.05% Tween-20 and diluted with HRP-labelled streptavidin (purchased from Sangon Biotech, Product code: D111054-0001) at 1:1000 for detection.

[3] = molecular target: T1, biotin-labelled human IgE-Fc; assay: blocking ELISA: FcεRIα-Fc coated, biotin-labelled human IgE-Fc (100 ng/mL) premixed with the antibody, streptavidin-HRP; blocked ligand FcεRIα-Fc
Description: (§1) The method specifically included diluting the recombinantly expressed human FcεRIα-Fc protein (with its amino acid sequence as set forth in SEQ ID NO: 51) with PBS to a final concentration of 1 μg/mL, coating the ELISA plates (purchased from Corning, Product code: 42592) at 100 μL per well, and keeping at 4° C. overnight. The next day, the coating solution was discarded. The wells were blocked with 2.5% skimmed milk dissolved in PBS for 1 hour and washed with PBS containing 0.05% Tween-20. […] After discarding the supernatant, the wells were washed with PBS containing 0.05% Tween-20 and detected by using HRP-labelled streptavidin (purchased from Sangon Biotech, Product code: D111054-0001).

[4] = molecular target: T1, biotin-labelled human IgE-Fc; assay: blocking ELISA: inhibition of biotin-labelled human IgE-Fc binding to coated FcεRIα-Fc
Description: as §1

[5] = molecular target: T2, human IgE (abcam, Product code ab65866) (human, UniProt P01854-1 1-428); assay: MSD-SET, solution equilibrium titration
T2 construct: also called antigen human IgE
T2 sequence (P01854 other isoform, or with tags, fused parts or gaps): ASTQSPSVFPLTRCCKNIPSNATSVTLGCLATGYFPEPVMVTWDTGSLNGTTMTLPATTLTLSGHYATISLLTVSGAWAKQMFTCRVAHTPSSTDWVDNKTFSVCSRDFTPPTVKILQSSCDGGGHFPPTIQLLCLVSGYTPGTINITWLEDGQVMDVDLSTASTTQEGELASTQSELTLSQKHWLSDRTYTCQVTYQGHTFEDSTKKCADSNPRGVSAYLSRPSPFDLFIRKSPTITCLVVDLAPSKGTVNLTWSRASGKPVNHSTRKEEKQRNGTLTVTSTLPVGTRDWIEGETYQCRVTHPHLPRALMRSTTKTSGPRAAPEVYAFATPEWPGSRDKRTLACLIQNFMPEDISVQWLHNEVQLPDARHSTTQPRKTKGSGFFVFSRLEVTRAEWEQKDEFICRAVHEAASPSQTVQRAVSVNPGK
Description: The solution equilibrium titration (SET) was performed in PBS+0.1% of IgG-free BSAbuffer (PBSF), where the antigen human IgE (purchased from: abcam, Product code: ab65866) was kept constant at 10-100 pM and incubated with 3-fold serial dilutions of humanized antibodies starting from 0.1-100 nM. […] 20 nM of antibodies diluted in PBS were coated onto standard binding MSD-ECL plates (purchased from MSD, Product code: L15XA-3) at 4° C. overnight. The MSD-ECL plates were blocked with 1% of Casein for 30 min while shaking at 700 rpm, and then washed with washing buffer (PBS+0.05% Tween 20) three times. The samples incubated with 2-fold serial dilutions of antigen human IgE and humanized antibodies were added into the MSD-ECL plates, incubated for 150 s while shaking at 700 rpm, and then washed once. […] 1× reading buffer T (purchased from MSD, Product code: R92TC-1) was added to read on an MSD Sector Imager instrument (Model: MESO QuickPlex SQ 120). In a Prism-GraphPad6 software, the percentage of free antigens was plotted as a function of titrated antibodies and fitted into a quadratic equation to extract the KD values.

T1 sequence (P01854 other isoform, or with tags, fused parts or gaps limits assumed): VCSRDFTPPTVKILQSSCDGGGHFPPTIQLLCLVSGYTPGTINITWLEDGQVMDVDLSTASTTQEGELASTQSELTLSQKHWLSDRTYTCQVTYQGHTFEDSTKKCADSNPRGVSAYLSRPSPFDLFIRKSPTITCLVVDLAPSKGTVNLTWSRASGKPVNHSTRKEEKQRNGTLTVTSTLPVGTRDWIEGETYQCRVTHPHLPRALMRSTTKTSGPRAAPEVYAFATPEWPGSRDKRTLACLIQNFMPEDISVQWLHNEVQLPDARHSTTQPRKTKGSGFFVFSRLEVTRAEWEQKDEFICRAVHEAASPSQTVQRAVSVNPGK

| Binder | IC50 (read off the curve) [1] [µg/mL] | IC50 (read off the curve) [2] [µg/mL] | IC50 (read off the curve) [3] [µg/mL] | IC50 [4] | Kd [5] [nM] |
| --- | --- | --- | --- | --- | --- |
| chimeric antibody SE2 (mouse SE2 variable regions, human IgG1/kappa constant regions) (antibody, V domains shown, also called chimeric recombinant monoclonal antibody) VH: DVQLLESGPGLVKPSQSLSLTCTVTGYSITSDYAWNWIRQFPGNKLEWMGYISYSGSTRYNPSLKSRISISRDTSKNQFFLQLNSVTSEDTATYFCVYGSSQRFFDYWGQGTTLTVSS VL: DILMTQSHKFMSTSIGDRVSITCKASQDVSIDVAWYHQKPGQSPKLLIYSASFRYAGVPDRFTGSGSGTDFTLTISSVQAEDLAVYYCQQHYSLFTFGSGTKLEIKR | ~0.2 |  |  |  |  |
| mouse-derived monoclonal antibody SE2 (antibody, V domains shown, the cloning primer was homologous to the mouse IgG1 heavy chain constant region; also called SE2 mouse hybridoma antibody; mouse-derived parent antibody of SE2) VH: DVQLLESGPGLVKPSQSLSLTCTVTGYSITSDYAWNWIRQFPGNKLEWMGYISYSGSTRYNPSLKSRISISRDTSKNQFFLQLNSVTSEDTATYFCVYGSSQRFFDYWGQGTTLTVSS VL: DILMTQSHKFMSTSIGDRVSITCKASQDVSIDVAWYHQKPGQSPKLLIYSASFRYAGVPDRFTGSGSGTDFTLTISSVQAEDLAVYYCQQHYSLFTFGSGTKLEIK | ~0.2 | ~0.3 |  |  |  |
| mouse-derived monoclonal antibody SE5 (antibody, V domains shown, the cloning primer was homologous to the mouse IgG1 heavy chain constant region; also called SE5 mouse hybridoma antibody; mouse-derived parent antibody of SE5) VH: DVQLLESGPGLVKPSQSLSLTCTVTGYSITSDYAWNWIRQFPGNKLEWLGYINYSGTTRYNPSLKSRISISRDTSKNQFFLQLNSVTSEDTATYFCVYGSSQRFFDYWGQGTTLTVSS VL: DIVMTQSHKFMSTSVGDRVSITCKASQDVSIDVAWYQQKPGQSPKLLIYSASWRYAGVPDRFTGSRSGTDYTLTISSVQAEDLAVYYCQQHYNLFTFGSGTKLEIQ | ~0.08 | ~0.2 | ~0.07 |  |  |
| chimeric antibody SE5 (mouse SE5 variable regions, human IgG1/kappa constant regions) (antibody, V domains shown, also called chimeric recombinant monoclonal antibody) VH: DVQLLESGPGLVKPSQSLSLTCTVTGYSITSDYAWNWIRQFPGNKLEWLGYINYSGTTRYNPSLKSRISISRDTSKNQFFLQLNSVTSEDTATYFCVYGSSQRFFDYWGQGTTLTVSS VL: DIVMTQSHKFMSTSVGDRVSITCKASQDVSIDVAWYQQKPGQSPKLLIYSASWRYAGVPDRFTGSRSGTDYTLTISSVQAEDLAVYYCQQHYNLFTFGSGTKLEIQR | ~0.08 |  |  |  |  |
| Humanized antibody SE2 (antibody, human IgG1, kappa, V domains shown, also called SE2 humanized antibody; humanized SE2) VH: QVQLQESGPGLVKPSQTLSLTCTVSGYSITSDYAWNWIRQPPGNGLEWMGYISYSGSTRYNPSLKSRITISRDTSKNQFSLKLSSVTAADTAVYFCVYGSSQRFFDYWGQGTLVTVSS VL: DILMTQSPDSLAVSLGERATINCKASQDVSIDVAWYQQKPGQPPKLLIYSASFRYAGVPDRFSGSGSGTDFTLTISSLQAEDVAVYYCQQHYSLFTFGSGTKLEIKR |  |  |  | ~0.417 µg/mL | 0.0109 |
| Humanized antibody SE5 (antibody, human IgG1, kappa, V domains shown, also called SE5 humanized antibody; humanized SE5) VH: QVQLQESGPGLVKPSQTLSLTCTVSGYSITSDYAWNWIRQPPGNGLEWLGYINYSGTTRYNPSLKSRITISRDTSKNQFSLKLSSVTAADTAVYFCVYGSSQRFFDYWGQGTLVTVSS VL: DIVMTQSPDSLAVSLGERATINCKASQDVSIDVAWYQQKPGQPPKLLIYSASWRYAGVPDRFSGSRSGTDYTLTISSLQAEDVAVYYCQQHYNLFTFGSGTKLEIKR |  |  | ~0.06 | ~0.266 nM | 0.01 |
